Source: the RNAGym collection of RNA variant scans (doi:10.1021/acssynbio.7b00057)

B1: Pistol ribozyme (parent)
chain: GGGUCGUUGUUCCAUAAUCGCGUGGAUAUGGCACGCAAGUUUCUACCGGGCACCGUAAAUGUCCGACUGGAGCCGUUCGGGCGGCUAUAAACAGACCUCAGGCCCGAAGCGUGGCGGCACCUGCCGCCGGUGGUAAAAAAGAUCGGAAGAGCACACGUCU

Variants of: B1
Assay: aptazyme ON/OFF ratio, guanine; higher = stronger switching; co-transcriptional cleavage with and without guanine

Variant	aptazyme ON/OFF ratio
U7C U8A G9C U11C C12G	1.11
U7C U8A G9C U11C C12U	1.14
U7C U8A G9C U11C C12A	1.11
U7C U8A G9C U10G U11C C12A C13A	1.36
U7C U8A G9C U10G U11C C12A C13G	1.21
U7C U8A G9C U10G U11C C12A C13U	1.43
U7C U8A G9U U10A C12U	1.19
U7C U8A G9U U10A C12G	1.18
U7C U8A G9U U10A C12A	1.19
U7C U8A G9C U11G C12G C13G	1.07
U7C U8A G9C U11G C12G C13A	1.1
U7C U8A G9C U11G C12G C13U	1.05
U7C U8A G9U C12A C13U	1.15
U7C U8A G9U C12A C13A	1.14
U7C U8A G9U C12A C13G	1.18
U7C U8A G9C U11A C13G	1.06
U7C U8A G9C U11A C13U	1.13
U7C U8A G9C U11A C13A	1.11
U7C U8A G9U U10A C13G	1.05
U7C U8A G9U U10A C13U	1.19
U7C U8A G9U U10A C13A	1.2
U7C U8A G9U U10A U11C C12A C13A	1.18
U7C U8A G9U U10A U11C C12A C13U	1.22
U7C U8A G9U U10A U11C C12A C13G	1.17

Variant	aptazyme ON/OFF ratio
U7C U8A G9U U10A U11C C12U C13U	1.21
U7C U8A G9U U10A U11C C12U C13G	1.13
U7C U8A G9U U10A U11C C12U C13A	1.14
U7C U8A G9U U10A U11C C12G C13G	1.19
U7C U8A G9U U10A U11C C12G C13A	1.13
U7C U8A G9U U10A U11C C12G C13U	1.25
U7C U8A G9U U10A U11A C12U C13U	1.36
U7C U8A G9U U10A U11A C12U C13A	1.2
U7C U8A G9U U10A U11A C12U C13G	1.21
U7C U8A G9C U10G U11G C12G C13A	1.11
U7C U8A G9C U10G U11G C12G C13G	1.13
U7C U8A G9C U10G U11G C12G C13U	1.09
U7C U8A G9U	1.59
U7C U8A G9U U10A C12G C13A	1.12
U7C U8A G9U U10A C12G C13U	1.25
U7C U8A G9U U10A C12G C13G	1.17
U7C U8A G9U U10C C12A	1.14
U7C U8A G9U U10A U11C C12G	1.28
U7C U8A G9U U10A U11C C12U	1.07
U7C U8A G9U U10A U11C C12A	1.15
U7C U8A G9C U10G U11C C12A	1.29
U7C U8A G9C U10G U11C C12U	1.24
U7C U8A G9C U10G U11C C12G	1.18
U7C U8A G9U U10A U11G C12A C13U	1.14

Variant	aptazyme ON/OFF ratio
U7C U8A G9U U10A U11G C12A C13G	1.15
U7C U8A G9U U10A U11G C12A C13A	1.09
U7C U8A G9U C12G	1.16
U7C U8A G9U C12U	1.34
U7C U8A G9U C12A	1.06
U7C U8A G9C U10G U11G C12U C13G	1.1
U7C U8A G9C U10G U11G C12U C13A	1.12
U7C U8A G9C U10G U11G C12U C13U	1.09
U7C U8A G9U U10A C12U C13A	1.24
U7C U8A G9U U10A C12U C13U	1.19
U7C U8A G9U U10A C12U C13G	1.16
U7C U8A G9C U11A C12U	1.15
U7C U8A G9C U11A C12A	1.1
U7C U8A G9C U11A C12G	1.12
U7C U8A G9U U10A U11A C12G	1.17
U7C U8A G9U U10A U11A C12U	1.14
U7C U8A G9U U10A U11A C12A	1.1
U7C U8A G9C U11A C12G C13A	1.13
U7C U8A G9C U11A C12G C13U	1.14
U7C U8A G9C U11A C12G C13G	1.17
U7C U8A G9U U10A U11G C12U C13A	1.16
U7C U8A G9U U10A U11G C12U C13G	1.16
U7C U8A G9U U10A U11G C12U C13U	1.31
U7C U8A G9C U10G U11C C12U C13A	1.19

Variant	aptazyme ON/OFF ratio
U7C U8A G9C U10G U11C C12U C13G	1.27
U7C U8A G9C U10G U11C C12U C13U	1.34
U7C U8A G9U U10A U11A C12A C13U	1.19
U7C U8A G9U U10A U11A C12A C13A	1.13
U7C U8A G9U U10A U11A C12A C13G	1.18
U7C U8A G9C U11A C12A C13G	1.08
U7C U8A G9C U11A C12A C13U	1.15
U7C U8A G9C U11A C12A C13A	1.11
U7C U8A G9C U11G C12U C13U	1.13
U7C U8A G9C U11G C12U C13G	1.14
U7C U8A G9C U11G C12U C13A	1.18
U7C U8A G9C U10G U11G C12G	1.13
U7C U8A G9C U10G U11G C12U	1.12
U7C U8A G9C U10G U11G C12A	1.23
U7C U8A G9C U11G C13G	1.05
U7C U8A G9C U11G C13A	1.07
U7C U8A G9C U11G C13U	1.15
U7C U8A G9C U11C C12A C13G	1.07
U7C U8A G9C U11C C12A C13U	1.08
U7C U8A G9C U11C C12A C13A	1.04
U7C U8A G9C U10G U11C C12G C13G	1.23
U7C U8A G9C U10G U11C C12G C13U	1.19
U7C U8A G9C U10G U11C C12G C13A	1.25
U7C U8A G9C U10G U11A C12U C13U	1.14

Variant	aptazyme ON/OFF ratio
U7C U8A G9U U10A U11A C12G C13A	1.08
U7C U8A G9U U10A U11A C12G C13G	1.2
U7C U8A G9U U10A U11A C12G C13U	1.28
U7C U8A G9U U10C C12A C13A	1.13
U7C U8A G9C U11G C12U	1.29
U7C U8A G9C U11G C12G	1.2
U7C U8A G9C U11G C12A	1.06
U7C U8A G9U U10A C12A C13G	1.16
U7C U8A G9U U10A C12A C13U	1.22
U7C U8A G9U U10A C12A C13A	1.29
U7C U8A G9U C12G C13A	1.21
U7C U8A G9U C12G C13U	1.22
U7C U8A G9U C12G C13G	1.21
U7C U8A G9U U10A U11C	1.05
U7C U8A G9U U10A U11G	1.36
U7C U8A G9U U10A U11A	1.38
U7C U8A G9C U10G U11G C12A C13G	1.12
U7C U8A G9C U10G U11G C12A C13A	1.09
U7C U8A G9C U10G U11G C12A C13U	1.06
U7C U8A G9C U10G U11A C13U	1.04
U7C U8A G9C U10G U11A C13A	1.08
U7C U8A G9C U10G U11A C13G	1.11
U7C U8A G9U U10C	3.35
U7C U8A G9U U10A	1.16

Variant	aptazyme ON/OFF ratio
U7C U8A G9U U10A U11G C13A	1.16
U7C U8A G9U U10A U11G C13U	1.17
U7C U8A G9U U10A U11G C13G	1.03
U7C U8A G9C U11G	1.13
U7C U8A G9C U11A	1.05
U7C U8A G9C U11C	1.04
U7C U8A G9C U10G U11G C13G	1.11
U7C U8A G9C U10G U11G C13U	1.14
U7C U8A G9C U10G U11G C13A	1.13
U7C U8A G9C U11C C13A	1.14
U7C U8A G9C U11C C13G	1.04
U7C U8A G9C U11C C13U	1.05
U7C U8A G9C U11G C12A C13A	1.13
U7C U8A G9C U11G C12A C13U	1.15
U7C U8A G9C U11G C12A C13G	1.15
U7C U8A G9C U11A C12U C13G	1.1
U7C U8A G9C U11A C12U C13A	1.16
U7C U8A G9C U11A C12U C13U	1.2
U7C U8A G9U C12U C13G	1.14
U7C U8A G9U C12U C13A	1.09
U7C U8A G9U C12U C13U	1.29
U7C U8A G9C U11C C12G C13G	1.12
U7C U8A G9C U11C C12G C13A	1.07
U7C U8A G9C U11C C12G C13U	1.1

Variant	aptazyme ON/OFF ratio
U7C U8A G9C U10G U11C C13G	1.05
U7C U8A G9C U10G U11C C13U	1.09
U7C U8A G9C U10G U11C C13A	1.39
U7C U8A G9U U10A U11G C12A	1.08
U7C U8A G9U U10A U11G C12U	1.13
U7C U8A G9U U10A U11G C12G	1.14
U7C U8A G9U U10A U11A C13U	1.19
U7C U8A G9U U10A U11A C13A	1.13
U7C U8A G9U U10A U11A C13G	1.07
U7C U8A G9U U10A U11G C12G C13G	1.26
U7C U8A G9U U10A U11G C12G C13A	1.15
U7C U8A G9U U10A U11G C12G C13U	1.12
U7C U8A G9U C13U	1.28
U7C U8A G9U C13G	1.03
U7C U8A G9U C13A	1.16
U7C U8A G9U U10A U11C C13U	1.06
U7C U8A G9U U10A U11C C13G	1.05
U7C U8A G9U U10A U11C C13A	1.07
U7C U8A G9C U10G U11G	1.1
U7C U8A G9C U10G U11C	1.1
U7C U8A G9C U11C C12U C13G	1.06
U7C U8A G9C U11C C12U C13A	1.11
U7C U8A G9C U11C C12U C13U	1.12
